For this assay, the target named is T1, endogenous murine SOD1 WT (in non-transgenic mouse spinal cord lysate) (mouse, UniProt P08228 2-154).
T1 construct: Tested only as a component of clarified spinal cord lysate; also called marine SOD1 WT (as printed once)
Description: competitive ELISA: Nb54 (0.2 µg/ml) on immobilized SOD1 G93A with Non-Tg mouse spinal cord lysate as competitor. For orientation: ELISA stands for enzyme-linked immunosorbent assay.
Description: A competitive ELISA was used to assess a potential interaction between nanobody and SOD1 derived from an ALS mouse model as follows. […] All research involving animals for the following post-mortem tissue processing was reviewed and approved by the Institutional Animal Care and Use Committee (IACUC) at the University of Massachusetts Chan Medical School.
Serial dilutions were prepared in 25 μl of assay buffer (0.2% (w/v) BSA in PBS). […] A statistical analysis was performed as described below and in the figure legend.

T1 sequence (P08228 2-154 limits assumed): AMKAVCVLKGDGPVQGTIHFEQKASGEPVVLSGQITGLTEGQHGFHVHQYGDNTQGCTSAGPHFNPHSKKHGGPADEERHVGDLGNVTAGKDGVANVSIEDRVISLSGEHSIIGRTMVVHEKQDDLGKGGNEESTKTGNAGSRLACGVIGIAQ

B1: Nb54 with a non-cleavable his-tag (used in the competitive ELISA) (VHH)
VHH: QVQLVESGGGWVQAGGSLRLSCVVSGTNFNDRSMGWYRQAPGKERELVATLSYGGRRNYVDAVKARFTMSRDNRKNTTYLLMNDLEPDDTAVYYCAAGHVLESVVPATTWIEYWGQGTQVTVSS
notes: not shown: non-cleavable his-tag
For the molecule B1, the binding result is recorded as “no binding”.
